Data as given in publication doi:10.1101/2022.09.22.509106 (bioRxiv, 2022).

Legend:
[1] = biological target: T1, purified human C1q protein (human, UniProt P02745 23-245; P02746 28-253; P02747 29-245); experiment: pull-down
[2] = biological target: T1, purified human C1q protein; experiment: immunostaining of cells or tissue
[3] = biological target: the molecule itself; experiment: negative staining electron microscopy

T1 sequence (P02745 23-245, chain 1 of 3): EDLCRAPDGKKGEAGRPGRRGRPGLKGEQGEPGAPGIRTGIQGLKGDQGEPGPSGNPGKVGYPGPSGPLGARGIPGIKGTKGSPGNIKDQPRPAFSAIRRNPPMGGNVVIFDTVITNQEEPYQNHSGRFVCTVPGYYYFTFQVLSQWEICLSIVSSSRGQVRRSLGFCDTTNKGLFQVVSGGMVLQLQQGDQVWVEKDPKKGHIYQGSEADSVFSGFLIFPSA
T1 sequence (P02746 28-253, chain 2 of 3): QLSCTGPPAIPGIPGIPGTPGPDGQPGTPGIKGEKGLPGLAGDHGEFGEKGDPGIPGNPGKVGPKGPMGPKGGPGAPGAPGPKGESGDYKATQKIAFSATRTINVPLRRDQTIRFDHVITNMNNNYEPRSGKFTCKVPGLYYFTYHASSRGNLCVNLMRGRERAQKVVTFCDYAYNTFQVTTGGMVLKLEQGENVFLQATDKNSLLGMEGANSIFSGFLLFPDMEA
T1 sequence (P02747 29-245, chain 3 of 3): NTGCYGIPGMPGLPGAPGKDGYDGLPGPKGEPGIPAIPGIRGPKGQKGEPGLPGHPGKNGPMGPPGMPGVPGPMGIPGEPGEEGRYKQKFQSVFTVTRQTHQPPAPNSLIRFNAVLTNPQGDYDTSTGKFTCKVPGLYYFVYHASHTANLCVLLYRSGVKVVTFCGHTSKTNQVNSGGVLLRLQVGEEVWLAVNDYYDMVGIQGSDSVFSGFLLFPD

B1: Rat Nptx2 pentraxin domain (X2-PD) (domain or fragment, UniProt P97738 224-425, looked up)
chain: DAFKVSLPLRTNYLYGKIKKTLPELYAFTICLWLRSSASPGIGTPFSYAVPGQANEIVLIEWGNNPIELLINDKVAQLPLFVSDGKWHHICITWTTRDGMWEAFQDGEKLGTGENLAPWHPIKPGGVLILGQEQDTVGGRFDATQAFVGELSQFNIWDRVLRAQEIINIANCSTNMPGNIIPWVDNNVDVFGGASKWPVETC
B1: binds [1].

B2: Nptxr and Nptx2 co-expressed on a stable tetracycline-inducible CHO cell-line (Nptxr/x2) (complex, human)
chain 1: MKFLAVLLAAGMLAFLGAVICIIASVPLAASPARALPGGADNASVASGAAASPGPQRSLSALHGAGGSAGPPALPGAPAASAHPLPPGPLFSRFLCTPLAAACPSGAQQGDAAGAAPGEREELLLLQSTAEQLRQTALQQEARIRADQDTIRELTGKLGRCESGLPRGLQGAGPRRDTMADGPWDSPALILELEDAVRALRDRIDRLEQELPARVNLSAAPAPVSAVPTGLHSKMDQLEGQLLAQVLALEKERVALSHSSRRQRQEVEKELDVLQGRVAELEHGSSAYSPPDAFKISIPIRNNYMYARVRKALPELYAFTACMWLRSRSSGTGQGTPFSYSVPGQANEIVLLEAGHEPMELLINDKVAQLPLSLKDNGWHHICIAWTTRDGLWSAYQDGELQGSGENLAAWHPIKPHGILILGQEQDTLGGRFDATQAFVGDIAQFNLWDHALTPAQVLGIANCTAPLLGNVLPWEDKLVEAFGGATKAAFDVCKGRAKA
chain 2: GAQDSPAPGSRFVCTALPPEAVHAGCPLPAMPMQGGAQSPEEELRAAVLQLRETVVQQKETLGAQREAIRELTGKLARCEGLAGGKARGAGATGKDTMGDLPRDPGHVVEQLSRSLQTLKDRLESLEHQLRANVSNAGLPGDFREVLQQRLGELERQLLRKVAELEDEKSLLHNETSAHRQKTESTLNALLQRVTELERGNSAFKSPDAFKVSLPLRTNYLYGKIKKTLPELYAFTICLWLRSSASPGIGTPFSYAVPGQANEIVLIEWGNNPIELLINDKVAQLPLFVSDGKWHHICVTWTTRDGMWEAFQDGEKLGTGENLAPWHPIKPGGVLILGQEQDTVGGRFDATQAFVGELSQFNIWDRVLRAQEIVNIANCSTNMPGNIIPWVDNNVDVFGGASKWPVETCEERLLDL
In the case of B2, the Kd [2] is reported as about 2 nM.

B3: neuronal pentraxin 2 (Nptx2), purified recombinant, His-tagged (natural protein, UniProt P47972 16-431, looked up)
chain: GAQDSPAPGSRFVCTALPPEAVHAGCPLPAMPMQGGAQSPEEELRAAVLQLRETVVQQKETLGAQREAIRELTGKLARCEGLAGGKARGAGATGKDTMGDLPRDPGHVVEQLSRSLQTLKDRLESLEHQLRANVSNAGLPGDFREVLQQRLGELERQLLRKVAELEDEKSLLHNETSAHRQKTESTLNALLQRVTELERGNSAFKSPDAFKVSLPLRTNYLYGKIKKTLPELYAFTICLWLRSSASPGIGTPFSYAVPGQANEIVLIEWGNNPIELLINDKVAQLPLFVSDGKWHHICVTWTTRDGMWEAFQDGEKLGTGENLAPWHPIKPGGVLILGQEQDTVGGRFDATQAFVGELSQFNIWDRVLRAQEIVNIANCSTNMPGNIIPWVDNNVDVFGGASKWPVETCEERLLDL
With B3 the “stoichiometry N” value [3] was 6.
